Assay results reported in PMC11452378 (Scientific Reports, 2024).

Key:
[1] = target: extracellular fragment of FcRn (UniProt P55899); test: BLI; biotinylated FcRn immobilized on Streptavidin (SA) biosensors (Octet Red384); antibodies in solution, 345 to 5.39 nM; PBS-HCl pH 6.0 0.1% Tween-20; at least triplicate
[2] = target: extracellular fragment of FcγRIIIa (158F) (UniProt P08637); test: BLI; biotinylated FcγR immobilized on Streptavidin (SA) biosensors (Octet Red384); antibodies in solution as serial dilutions; PBS pH 7.4 0.1% BSA 0.1% Tween-20; at least triplicate
[3] = target: extracellular fragment of FcγRIIIa (158V); test: as above
[4] = target: extracellular fragment of FcγRIIa (131H) (UniProt P12318); test: as above
[5] = target: extracellular fragment of FcγRIIa (131R); test: as above
[6] = target: extracellular fragment of FcγRIIb (UniProt P31994); test: as above
[7] = target: extracellular fragment of FcγRIa (UniProt P12314); test: as above
[8] = target: T1, extracellular domain of PD-1 receptor (R&D Systems) (Homo sapiens, UniProt Q15116); test: SPR; PD-1 extracellular domain immobilized on a Planar Polyethylene Glycol/Carboxyl Sensor Chip (Reichert4SPR); antibodies in solution, 10; 3.33; 1.11; 0.37; 0.12 nM in PBS 0.02% Tween-20 pH 7.4; multi-step kinetics; triplicate; details: both partners purified
T1 construct: Programmed cell death protein 1 (PD-1), extracellular domain; also called Programmed cell death protein 1; source: bought: R&D Systems
T1 sequence (Q15116 25-170): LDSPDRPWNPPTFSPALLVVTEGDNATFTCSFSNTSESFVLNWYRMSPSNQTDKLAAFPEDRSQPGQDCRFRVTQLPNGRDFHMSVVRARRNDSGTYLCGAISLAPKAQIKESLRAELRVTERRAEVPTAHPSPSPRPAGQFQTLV

Chain of extracellular fragment of FcγRIa (P12314 16-292): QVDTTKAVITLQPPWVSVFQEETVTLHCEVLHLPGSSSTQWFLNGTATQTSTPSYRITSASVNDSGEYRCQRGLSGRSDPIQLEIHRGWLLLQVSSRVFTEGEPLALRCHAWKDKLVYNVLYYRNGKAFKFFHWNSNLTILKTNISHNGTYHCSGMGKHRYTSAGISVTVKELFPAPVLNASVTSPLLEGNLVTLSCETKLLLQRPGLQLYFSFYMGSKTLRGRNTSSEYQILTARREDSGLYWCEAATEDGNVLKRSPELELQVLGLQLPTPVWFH
Chain of extracellular fragment of FcγRIIb (P31994 43-217): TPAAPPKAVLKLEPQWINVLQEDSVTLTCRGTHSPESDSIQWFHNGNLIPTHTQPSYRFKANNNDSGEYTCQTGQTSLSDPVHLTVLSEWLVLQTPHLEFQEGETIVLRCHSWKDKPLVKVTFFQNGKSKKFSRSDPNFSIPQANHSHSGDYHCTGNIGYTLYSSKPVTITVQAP
Chain of extracellular fragment of FcγRIIIa (158F) (P08637 17-208): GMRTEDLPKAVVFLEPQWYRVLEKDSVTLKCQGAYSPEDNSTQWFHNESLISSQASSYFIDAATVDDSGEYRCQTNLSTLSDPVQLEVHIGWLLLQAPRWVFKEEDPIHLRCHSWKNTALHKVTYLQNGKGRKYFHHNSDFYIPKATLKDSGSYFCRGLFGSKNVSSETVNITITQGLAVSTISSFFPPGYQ
Chain of extracellular fragment of FcγRIIa (131H) (P12318 34-217): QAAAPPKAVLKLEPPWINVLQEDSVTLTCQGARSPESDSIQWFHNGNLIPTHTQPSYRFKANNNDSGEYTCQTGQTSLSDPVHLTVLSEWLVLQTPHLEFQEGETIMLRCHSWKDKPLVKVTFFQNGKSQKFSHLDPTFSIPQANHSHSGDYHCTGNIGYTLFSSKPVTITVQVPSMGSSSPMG
Chain of extracellular fragment of FcRn (P55899 24-297): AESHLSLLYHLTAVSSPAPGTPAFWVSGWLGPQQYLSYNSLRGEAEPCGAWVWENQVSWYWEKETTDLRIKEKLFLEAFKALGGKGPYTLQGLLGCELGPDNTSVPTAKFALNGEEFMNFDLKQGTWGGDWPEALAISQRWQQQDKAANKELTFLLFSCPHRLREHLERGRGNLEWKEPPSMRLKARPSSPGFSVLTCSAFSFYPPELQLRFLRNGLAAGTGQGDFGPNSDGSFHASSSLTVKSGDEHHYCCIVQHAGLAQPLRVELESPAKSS

| Molecule | Kd [1] [µM] | Kd [2] [µM] | Kd [3] [µM] | Kd [4] [µM] | Kd [5] [µM] | Kd [6] [µM] | Kd [7] [µM] | Kd [8] [pM] |
| --- | --- | --- | --- | --- | --- | --- | --- | --- |
| Nivolumab (antibody) | 0.0248 | 16.6 | 8.97 | 13.1 | 2 | 0.93 | 0.074 | – |
| Pembrolizumab (antibody) | – | – | 5.24 | – | 5.17 | – | – | – |
| Prolgolimab (antibody, V domains shown) VH: QVQLVQSGGGLVQPGGSLRLSCAASGFTFSSYWMYWVRQVPGKGLEWVSAIDTGGGRTYYADSVKGRFAISRVNAKNTMYLQMNSLRAEDTAVYYCARDEGGGTGWGVLKDWPYGLDAWGQGTLVTVSS VL: QPVLTQPLSVSVALGQTARITCGGNNIGSKNVHWYQQKPGQAPVLVIYRDSNRPSGIPERFSGSNSGNTATLTISRAQAGDEADYYCQVWDSSTAVFGTGTKLTVL | 0.0153 | 12.7 | 1.33 | 14.6 | 9.66 | 21 | 0.9 | – |
| Pembrolizumab (antibody, V domains shown, variable domain of the pembrolizumab heavy chain; constant region of the IgG4 heavy chain; light chain of pembrolizumab; IgG4; Whole therapeutic antibody in all assays; also called anti-PD-1 antibody; IgG4) VH: QVQLVQSGVEVKKPGASVKVSCKASGYTFTNYYMYWVRQAPGQGLEWMGGINPSNGGTNFNEKFKNRVTLTTDSSTTTAYMELKSLQFDDTAVYYCARRDYRFDMGFDYWGQGTTVTVSS VL: EIVLTQSPATLSLSPGERATLSCRASKGVSTSGYSYLHWYQQKPGQAPRLLIYLASYLESGVPARFSGSGSGTDFTLTISSLEPEDFAVYYCQHSRDLPLTFGGGTKVEIK | 0.025 | 19.9 | – | 11.1 | – | 8.64 | 0.085 | 4.7 |
